Data from patent US20150307561.

Columns and labels:
Assay in all cases: cell_activity
[1] = tested on: TALEN L (L538), canonical RVDs (synthetic (Xanthomonas TALE scaffold)); settings: cold shock
[2] = tested on: TALEN L*, non-canonical RVDs (synthetic (Xanthomonas TALE scaffold))
[3] = tested on: TALEN L+17 (synthetic (Xanthomonas TALE scaffold)); settings: K562, partner R2+17, cold shock
[4] = tested on: TALEN L*+17 (synthetic (Xanthomonas TALE scaffold)); settings: for off-target activity reduction (fold reduction vs L+17): L*+17 homodimer at +17_OT1
[5] = tested on: TALEN R (R557), canonical RVDs (synthetic (Xanthomonas TALE scaffold)); settings: cold shock
[6] = tested on: TALEN R*, non-canonical RVDs (synthetic (Xanthomonas TALE scaffold)); settings: cold shock
[7] = tested on: TALEN R 102146 (synthetic (Xanthomonas TALE scaffold)); settings: K562, partner TALEN L
[8] = tested on: TALEN R 102112 (synthetic (Xanthomonas TALE scaffold)); settings: K562, partner TALEN L
[9] = tested on: TALEN R 102105 (synthetic (Xanthomonas TALE scaffold)); settings: K562, partner TALEN L
[10] = tested on: TALEN R 102162 (synthetic (Xanthomonas TALE scaffold)); settings: K562, partner TALEN L
[11] = tested on: TALEN R 102128 (synthetic (Xanthomonas TALE scaffold)); settings: K562, partner TALEN L
[12] = tested on: TALEN R 102158 (synthetic (Xanthomonas TALE scaffold)); settings: K562, partner TALEN L
[13] = tested on: TALEN R 102148 (synthetic (Xanthomonas TALE scaffold)); settings: K562, partner TALEN L
[14] = tested on: TALEN R 102161 (synthetic (Xanthomonas TALE scaffold)); settings: K562, partner TALEN L
[15] = tested on: TALEN R 102102 (synthetic (Xanthomonas TALE scaffold)); settings: K562, partner TALEN L
[16] = tested on: TALEN R 102124 (synthetic (Xanthomonas TALE scaffold)); settings: K562, partner TALEN L
[17] = tested on: TALEN R 102150 (synthetic (Xanthomonas TALE scaffold)); settings: K562, partner TALEN L
[18] = tested on: TALEN R 102156 (synthetic (Xanthomonas TALE scaffold)); settings: K562, partner TALEN L
[19] = tested on: TALEN R 102177 (synthetic (Xanthomonas TALE scaffold)); settings: K562, partner TALEN L
[20] = tested on: TALEN R 102129 (synthetic (Xanthomonas TALE scaffold)); settings: K562, partner TALEN L
[21] = tested on: TALEN R 102151 (synthetic (Xanthomonas TALE scaffold)); settings: K562, partner TALEN L
[22] = tested on: TALEN R 102109 G34R in repeat 8 (synthetic (Xanthomonas TALE scaffold)); settings: K562, partner TALEN L
[23] = tested on: TALEN R 102115 (synthetic (Xanthomonas TALE scaffold)); settings: K562, partner TALEN L
[24] = tested on: TALEN R 102159 (synthetic (Xanthomonas TALE scaffold)); settings: K562, partner TALEN L
[25] = tested on: TALEN R 102123 (synthetic (Xanthomonas TALE scaffold)); settings: K562, partner TALEN L
[26] = tested on: TALEN L 102209 (synthetic (Xanthomonas TALE scaffold)); settings: K562, partner TALEN R
[27] = tested on: TALEN L 102049 (synthetic (Xanthomonas TALE scaffold)); settings: K562, partner TALEN R
[28] = tested on: TALEN L 102010 (synthetic (Xanthomonas TALE scaffold)); settings: K562, partner TALEN R
[29] = tested on: TALEN L 102213 (synthetic (Xanthomonas TALE scaffold)); settings: K562, partner TALEN R
[30] = tested on: TALEN L 102203 (synthetic (Xanthomonas TALE scaffold)); settings: K562, partner TALEN R
[31] = tested on: TALEN L 102211 (synthetic (Xanthomonas TALE scaffold)); settings: K562, partner TALEN R
[32] = tested on: TALEN L 102077 (synthetic (Xanthomonas TALE scaffold)); settings: K562, partner TALEN R
[33] = tested on: TALEN L 102202 (synthetic (Xanthomonas TALE scaffold)); settings: K562, partner TALEN R
[34] = tested on: TALEN L 102204 (synthetic (Xanthomonas TALE scaffold)); settings: K562, partner TALEN R
[35] = tested on: TALEN L 102216 (synthetic (Xanthomonas TALE scaffold)); settings: K562, partner TALEN R
[36] = tested on: TALEN L 102210 (synthetic (Xanthomonas TALE scaffold)); settings: K562, partner TALEN R
[37] = tested on: TALEN L 102208 (synthetic (Xanthomonas TALE scaffold)); settings: K562, partner TALEN R
[38] = tested on: TALEN L 102214 (synthetic (Xanthomonas TALE scaffold)); settings: K562, partner TALEN R
[39] = tested on: TALEN L 102038 (synthetic (Xanthomonas TALE scaffold)); settings: K562, partner TALEN R
[40] = tested on: TALEN L 102205 (synthetic (Xanthomonas TALE scaffold)); settings: K562, partner TALEN R
[41] = tested on: TALEN L 102215 (synthetic (Xanthomonas TALE scaffold)); settings: K562, partner TALEN R
[42] = tested on: TALEN L 102035 (synthetic (Xanthomonas TALE scaffold)); settings: K562, partner TALEN R
[43] = tested on: TALEN L 102217 (synthetic (Xanthomonas TALE scaffold)); settings: K562, partner TALEN R
[44] = tested on: TALEN L 102078 (synthetic (Xanthomonas TALE scaffold)); settings: K562, partner TALEN R
[45] = tested on: TALEN L 102052 (synthetic (Xanthomonas TALE scaffold)); settings: K562, partner TALEN R
[46] = tested on: TALEN L 102075 (synthetic (Xanthomonas TALE scaffold)); settings: K562, partner TALEN R
[47] = tested on: TALEN L 102224 (synthetic (Xanthomonas TALE scaffold)); settings: K562, partner TALEN R
[48] = tested on: TALEN L 102043 (synthetic (Xanthomonas TALE scaffold)); settings: K562, partner TALEN R
[49] = tested on: TALEN L 102002 (synthetic (Xanthomonas TALE scaffold)); settings: K562, partner TALEN R
[50] = tested on: TALEN L 102083 (synthetic (Xanthomonas TALE scaffold)); settings: K562, partner TALEN R
[51] = tested on: TALEN L 102041 (synthetic (Xanthomonas TALE scaffold)); settings: K562, partner TALEN R
[52] = tested on: TALEN L 102006 (synthetic (Xanthomonas TALE scaffold)); settings: K562, partner TALEN R
[53] = tested on: TALEN L 102056 (synthetic (Xanthomonas TALE scaffold)); settings: K562, partner TALEN R
[54] = tested on: TALEN L 102066 (synthetic (Xanthomonas TALE scaffold)); settings: K562, partner TALEN R
[55] = tested on: TALEN L 102072 (synthetic (Xanthomonas TALE scaffold)); settings: K562, partner TALEN R
[56] = tested on: TALEN L 102076 (synthetic (Xanthomonas TALE scaffold)); settings: K562, partner TALEN R
[57] = tested on: TALEN L 102046 (synthetic (Xanthomonas TALE scaffold)); settings: K562, partner TALEN R; 30.1 in Table 4
[58] = tested on: TALEN L 102219 (synthetic (Xanthomonas TALE scaffold)); settings: K562, partner TALEN R
[59] = tested on: TALEN L 102206 (synthetic (Xanthomonas TALE scaffold)); settings: K562, partner TALEN R
[60] = tested on: TALEN L 102085 (synthetic (Xanthomonas TALE scaffold)); settings: K562, partner TALEN R
[61] = OT2, L*/L* homodimer, about 180-fold below L

## CCCGATGAAGCCCCAGGTGTTTTAAAT (double strand) [OT2 right half]
[1]; OT2, L/L homodimer
  activity: 3.18 % indels
[2]; [61]
  activity: 0.017 % indels

## CTTCATTACACCTGCAGCTCTCA (double strand) [CCR5 +17 target, left half]
[3]
  activity: > 85 % indels
[4]; K562, partner R2+17, cold shock
  activity: > 85 % indels

## CTTGATTCCACCTGTAGCTCCGAGCAAA (double strand) [OT2 left half]
[1]; OT2, L/L homodimer
  activity: 3.18 % indels
[2]; [61]
  activity: 0.017 % indels

## GTTACCAGATATCCTTTCTGGAAGAAA (double strand) [OT1 right half]
[5]; OT1, L/R
  activity: 3.17 % indels
[6]; OT1, L*/R*, 0.663 for L/R*
  activity: 0.32 % indels

## TCTTCCAGAATTGATACT (double strand) [TALEN R binding site (CCR5)]
[7]
  activity: 31.4 % indels
[8]
  activity: 6.1 % indels
[9]
  activity: 24.9 % indels
[10]
  activity: 23.1 % indels
[11]
  activity: 7.6 % indels
[12]
  activity: 23.4 % indels
[13]
  activity: 33.7 % indels
[14]
  activity: 9.3 % indels
[15]
  activity: 27.8 % indels
[16]
  activity: 29.1 % indels
[17]
  activity: 31.2 % indels
[5]; K562, L/R
  activity: 50.6 % indels
[18]
  activity: 25.4 % indels
[19]
  activity: 22.9 % indels
[6]; K562, L*/R*, 55.53 with L
  activity: 65.2 % indels
[20]
  activity: 4.7 % indels
[21]
  activity: 23.6 % indels
[22]
  activity: 29.7 % indels
[23]
  activity: 27.7 % indels
[24]
  activity: 24.9 % indels
[25]
  activity: 32.8 % indels

## TTCATTACACCTGCAGCT (double strand) [TALEN L binding site (CCR5)]
[26]
  activity: 28.4 % indels
[27]
  activity: 25.9 % indels
[28]
  activity: 17.3 % indels
[29]
  activity: 34.1 % indels
[30]
  activity: 16.6 % indels
[31]
  activity: 23.2 % indels
[32]
  activity: 23.8 % indels
[33]
  activity: 32.4 % indels
[1]; K562, L/R
  activity: 50.6 % indels
[34]
  activity: 36.6 % indels
[35]
  activity: 35.4 % indels
[36]
  activity: 33.6 % indels
[37]
  activity: 27.9 % indels
[38]
  activity: 31.2 % indels
[39]
  activity: 17.2 % indels
[40]
  activity: 40.2 % indels
[41]
  activity: 29 % indels
[42]
  activity: 16.8 % indels
[43]
  activity: 34.5 % indels
[44]
  activity: 25.1 % indels
[45]
  activity: 30.1 % indels
[46]
  activity: 10.7 % indels
[47]
  activity: 38.7 % indels
[48]
  activity: 22.4 % indels
[49]
  activity: 20.3 % indels
[50]
  activity: 27 % indels
[51]
  activity: 4.2 % indels
[52]
  activity: 1.3 % indels
[53]
  activity: 30.9 % indels
[2]; K562, L*/R*, cold shock, 58.66 with R
  activity: 65.2 % indels
[54]
  activity: 22.9 % indels
[55]
  activity: 24.5 % indels
[56]
  activity: 21.6 % indels
[57]
  activity: 33.6 % indels
[58]
  activity: 37.8 % indels
[59]
  activity: 23.5 % indels
[60]
  activity: 26.1 % indels

## TTTACCCTGCAGGTGTGATGAAT (double strand) [+17_OT1 right half]
[4]
  off-target activity reduction (fold reduction vs L+17): > 100

## TTTAGATACACCTACCTATAAAT (double strand) [+17_OT1 left half]
[4]
  off-target activity reduction (fold reduction vs L+17): > 100

## TTTTATTACACTTCCAGATCTTTTATT (double strand) [OT1 left half]
[1]; OT1, L/R
  activity: 3.17 % indels
[2]; OT1, L*/R*, cold shock, 1.967 for L*/R
  activity: 0.32 % indels
